Measured values reported in patent US20210253720A1 (KEROS THERAPEUTICS, published 2021).

T1: ALK2-FC (UniProt Q04771 21-123, limits assumed)
T1 construct: Only the embodiments speak of 'human ALK2'; not shown: Fc part
T1 sequence (looked up): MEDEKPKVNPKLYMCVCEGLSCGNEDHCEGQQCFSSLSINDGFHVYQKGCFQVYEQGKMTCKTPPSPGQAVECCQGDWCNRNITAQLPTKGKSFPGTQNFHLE

B1: Antibody 1, monovalent fAB in fAB-FH format (Fab, V domains shown)
VH: QVQLVQSGAEVKKPGSSVKVSCKASGGTFSSYGVSWVRQAPGQGLEWMGGIIPHFGIANYAQKFQGRVTITADESTSTAYMELSSLRSEDTAVYYCAREIGSLDIWGQGTLVTVSS
VL: DIVLTQPPSVSGAPGQRVTISCSGSSSNIGSNYVSWYQQLPGTAPKVLIYKNNHRPSGVPDRFSGSKSGTSASLAITGLQAEDEADYYCASWDHSDRFYVFGGGTKLTVLG
notes: also called Anti-ALK2 fAB
B2: Antibody 4, monovalent fAB in fAB-FH format (Fab, V domains shown)
VH: QVQLVQSGAEVKKPGSSVKVSCKASGGTFSSYAIHWVRQAPGQGLEWMGRIIPDFGTANYAQKFQGRVTITADESTSTAYMELSSLRSEDTAVYYCARGPTQAIHYFAYWGQGTLVTVSS
VL: DIELTQPPSVSVSPGQTASITCSGDNLRKYSAHWYQQKPGQAPVLVIYYDNKRPSGIPERFSGSNSGNTATLTISGTQAEDEADYYCQVYASVHRMVFGGGTKLTVLG
notes: also called Anti-ALK2 fAB
B3: Antibody 3, monovalent fAB in fAB-FH format (Fab, V domains shown)
VH: EVQLVESGGGLVKPGGSLRLSCAASGFTFNSSAMSWVRQAPGKGLEWVGRIKSKRDGYTTDYAAPVKGRFTISRDDSKNTLYLQMNSLKTEDTAVYYCARDYGGLKFDYWGQGTLVTVSS
VL: DIELTQPPSVSVSPGQTASITCSGDNIGTKYAYWYQQKPGQAPVLVIYGDSDRPSGIPERFSGSNSGNTATLTISGTQAEDEADYYCYSADAQQMKAVFGGGTKLTVLG
notes: also called Anti-ALK2 fAB
B4: Antibody 2, monovalent fAB in fAB-FH format (Fab, V domains shown)
VH: EVQLVESGGGLVKPGGSLRLSCAASGFTFSSHAMSWVRQAPGKGLEWVGRIKSKADSGTTDYAAPVKGRFTISRDDSKNTLYLQMNSLKTEDTAVYYCARDYGVAFAYWGQGTLVTVSS
VL: DIELTQPPSVSVSPGQTASITCSGDSIPSFFASWYQQKPGQAPVLVIYRDSNRPSGIPERFSGSNSGNTATLTISGTQAEDEADYYCYVTAPWKSIWVFGGGTKLTVLG
notes: also called Anti-ALK2 fAB
B5: Antibody 5, monovalent fAB in fAB-FH format (Fab, V domains shown)
VH: EVQLLESGGGLVQPGGSLRLSCAASGFTFSSAAMHWVRQAPGKGLEWVSVISSDGGSTYYADSVKGRFTISRDNSKNTLYLQMNSLRAEDTAVYYCARAGFILGSLGVAWMDVWGQGTLVTVSS
VL: DIELTQPPSVSVSPGQTASITCSGDSLGSKSVHWYQQKPGQAPVLVIYRDSKRPSGIPERFSGSNSGNTATLTISGTQAEDEADYYCQTYDWSHFGWVFGGGTKLTVLG
B6: Antibody 6, monovalent fAB in fAB-FH format (Fab, V domains shown)
VH: EVQLLESGGGLVQPGGSLRLSCAASGFTFGRFVMHWVRQAPGKGLEWVSVIGYSGSSTYYADSVKGRFTISRDNSKNTLYLQMNSLRAEDTAVYYCAREPGYYYPSGYYRGPGYWMDVWGQGTLVTVSS
VL: DIQMTQSPSSLSASVGDRVTITCRASQGISGNWLTWYQQKPGKAPKLLIYDASNLQSGVPSRFSGSGSGTDFTLTISSLQPEDFATYYCHQSYRGPMTFGQGTKVEIKR
notes: also called Anti-ALK2 fAB
B7: Antibody 8, monovalent fAB in fAB-FH format (Fab, V domains shown)
VH: EVQLLESGGGLVQPGGSLRLSCAASGFTFSDYAMHWVRQAPGKGLEWVSSIFYSGSNTYYADSVKGRFTISRDNSKNTLYLQMNSLRAEDTAVYYCARPKSYASGPFAYWGQGTLVTVSS
VL: DIELTQPPSVSVSPGQTASITCSGDALRYYIAHWYQQKPGQAPVLVIYYNNNRPSGIPERFSGSNSGNTATLTISGTQAEDEADYYCQSYGPGSVVFGGGTKLTVLG
notes: also called Anti-ALK2 fAB
B8: Antibody 9, monovalent fAB in fAB-FH format (Fab, V domains shown)
VH: QVQLVQSGAEVKKPGSSVKVSCKASGGTFSTHAISWVRQAPGQGLEWMGLIQPRFGTANYAQKFQGRVTITADESTSTAYMELSSLRSEDTAVYYCARDYYGGMAYWGQGTLVTVSS
VL: DIVLTQPPSVSGAPGQRVTISCSGSSSNIGQNYVSWYQQLPGTAPKLLIYDNSKRPSGVPDRFSGSKSGTSASLAITGLQAEDEADYYCSSWDLLSKSRVFGGGTKLTVLG
notes: also called Anti-ALK2 fAB

The binders below were run against T1, ALK2-FC (assay: BLI, ForteBio Octet; fAB against ALK2-FC; fAB, ForteBio Octet against ALK2-FC).

Row | Kd | Binder
1 | 4 nM | B1

What follows are binders tested against ALK2 on C2C12-BRE-Luciferase cells (assay: not given).
Chain of ALK2 on C2C12-BRE-Luciferase cells (P37172 whole entry): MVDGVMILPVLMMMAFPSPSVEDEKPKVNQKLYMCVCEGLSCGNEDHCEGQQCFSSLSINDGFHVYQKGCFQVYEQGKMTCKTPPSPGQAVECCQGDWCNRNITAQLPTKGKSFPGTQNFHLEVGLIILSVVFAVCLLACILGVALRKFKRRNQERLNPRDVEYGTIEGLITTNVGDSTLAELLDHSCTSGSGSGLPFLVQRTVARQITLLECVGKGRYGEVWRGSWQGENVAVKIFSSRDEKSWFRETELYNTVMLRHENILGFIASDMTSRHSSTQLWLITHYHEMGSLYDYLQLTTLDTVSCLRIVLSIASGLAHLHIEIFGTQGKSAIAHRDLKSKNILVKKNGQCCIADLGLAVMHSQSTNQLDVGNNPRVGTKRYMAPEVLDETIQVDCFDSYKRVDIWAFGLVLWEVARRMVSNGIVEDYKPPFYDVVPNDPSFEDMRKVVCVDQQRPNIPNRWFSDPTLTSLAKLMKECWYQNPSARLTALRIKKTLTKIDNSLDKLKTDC

Row | IC50 (3 Param fit), inhibition of BMP6 (40 ng/mL)-induced SMAD1 (BRE) luciferase signal in C2C12 cells, ng/mL is the unit of the x axis | IC50 (4 Param fit), inhibition of BMP6 (40 ng/mL)-induced SMAD1 (BRE) luciferase signal in C2C12 cells, ng/mL is the unit of the x axis | Binder
2 | 465 ng/mL | 462 ng/mL | B2
3 | 1460 ng/mL | 1490 ng/mL | B3
4 | 145 ng/mL | 221 ng/mL | B4
5 | 1750 ng/mL | 1830 ng/mL | B1
6 | 710 ng/mL | 754 ng/mL | B5

These binders were tested against T1, ALK2-FC (assay: BLI, ForteBio Octet RED384; monovalent fAB-FH against ALK2-FC).

Row | Kd | koff | Binder
7 | 1.8 nM | 0.000759 s⁻¹ | B2
8 | 4.4 nM | 0.00149 s⁻¹ | B3
9 | 0.7 nM | 0.000357 s⁻¹ | B4
10 | 4 nM | 0.00172 s⁻¹ | B1
11 | 2.9 nM | 0.00349 s⁻¹ | B6
12 | 6.3 nM | 0.00576 s⁻¹ | B7
13 | 14 nM | 0.0149 s⁻¹ | B8

Molecular target: ALK2 on C2C12-BRE-Luciferase cells
Experiment: not given
Remark: another data set of the same source

Row | IC50, inhibition of BMP6 (40 ng/mL)-induced SMAD1 (BRE) luciferase signal in C2C12 cells; fit type not given | Binder
14 | 1.16 µg/mL | B6
15 | 0.367 µg/mL | B7
16 | 1.27 µg/mL | B8

What follows are binders tested against T1, ALK2-FC (assay: BLI, ForteBio Octet; fAB against ALK2-FC).

Row | Kd | Binder
17 | 4.4 nM | B3
18 | 0.7 nM | B4
